# Data: the MegaScale stability set (Tsuboyama et al. 2023)
# B1: 2K2A (parent)
# chain: ELREAFRLYDKEGNGYISTDVMREILAELDETLSSEDLDAMIDEIDADGSGTVDFEEFMGVMT
# B2: 6YSE (parent)
# chain: HERALMVNRLQKLTRMLRVHPDPKWKQEQQELIKRLK
# Variants of: B1
# Test: folding stability dG (cDNA display proteolysis); higher = more stable
# Details: PBS, room temperature
row,Variant,folding stability dG [kcal/mol]
1,D10Q,0.395
2,F6E,0.086
3,D54K,1.57
4,D54M,1.76
5,E24I,2.29
6,E31W,1.98
7,A40C,1.93
8,L38R,0.432
9,S18L,1.41
10,L2Y,1.96
11,L2T,0.594
12,S50H,1.16
13,M62E,-0.063
14,E12R,0.846
15,E4F,1.32
16,E28R,2.59
17,I25A,0.872
18,A5W,2.97
19,E56D,1.84

row,Variant,folding stability dG [kcal/mol]
1,E56T,1.69
2,R23W,0.731
3,M41I,1.86
4,M41R,1.47
5,G49L,1.29
6,G49I,0.499
7,E36C,1.85
8,A27N,1.24
9,A27T,1.6
10,G15S,0.464
11,R7Q,1.96
12,R7M,2.12
13,S34F,0.67
14,S34V,1.02
15,N14W,1.38
16,T63L,2.25
17,T63K,1.97
18,A47Q,1.93

# Variants of: B2
# Test: as above
# Details: PBS, room temperature
row,Variant,folding stability dG [kcal/mol]
1,H1R,1.63
2,H1L,1.36
3,H1Y,1.59
4,H1M,1.68
5,H1I,1.34
6,H1Q,1.38
7,H1K,1.42
8,H1A,1.55
9,H1S,1.5
10,H1D,1.53
11,H1T,1.45
12,H1F,1.59
13,H1W,1.75
14,H1C,2.12
15,H1E,1.26
16,H1N,1.45
17,H1G,1.05
18,H1P,1.31
19,V7A,0.946
20,V7L,2.05
21,V7D,-0.144
22,V7Q,1.03
23,V7W,1.96

row,Variant,folding stability dG [kcal/mol]
1,V7G,0.569
2,V7R,1.55
3,V7P,-0.01
4,V7Y,1.67
5,V7T,0.591
6,V7F,1.42
7,V7H,1.09
8,V7S,0.086
9,V7E,1.11
10,V7K,1.05
11,V7C,1.96
12,V7I,1.78
13,V7N,0.506
14,V7M,1.59
15,L5T,1.27
16,L5Y,1.23
17,L5S,1.48
18,L5P,-0.071
19,L5A,1.6
20,L5N,1.11
21,L5V,1.29
22,L5R,1.79
23,L5D,1
